Measurements taken from US20110118447A1.

Molecular target: binding partner of C5A (XPA23)
Assay: Biacore K-off

| Binder | fold difference in affinity vs original |
| --- | --- |
| C5A (XPA23) VL A51H (antibody, V domains shown) VH: EVQLLESGGGLVQPGGSLRLSCAASGFTFSKYFMFWVRQAPGKGLEWVSVISPSGGMTRYADSVKGRFTISRDNSKNTLYLQMNSLRAEDTAVYYCARVGYGGNSDYWGQGTLVTVSS VL: DIQMTQSPSSVSASVGDRLTIICRASQDINRWLAWYQQTPGNAPKLLIHSHTSLQSGVPSRFSGSGSGTDFTLTINSLQPEDFATYYCQQADSFPLTFGGGTKVEIK | 0.61 fold |
| C5A (XPA23) VL A51Q (antibody, V domains shown) VH: EVQLLESGGGLVQPGGSLRLSCAASGFTFSKYFMFWVRQAPGKGLEWVSVISPSGGMTRYADSVKGRFTISRDNSKNTLYLQMNSLRAEDTAVYYCARVGYGGNSDYWGQGTLVTVSS VL: DIQMTQSPSSVSASVGDRLTIICRASQDINRWLAWYQQTPGNAPKLLIHSQTSLQSGVPSRFSGSGSGTDFTLTINSLQPEDFATYYCQQADSFPLTFGGGTKVEIK | 0.24 fold |
| C5A (XPA23) VL T52Q (antibody, V domains shown) VH: EVQLLESGGGLVQPGGSLRLSCAASGFTFSKYFMFWVRQAPGKGLEWVSVISPSGGMTRYADSVKGRFTISRDNSKNTLYLQMNSLRAEDTAVYYCARVGYGGNSDYWGQGTLVTVSS VL: DIQMTQSPSSVSASVGDRLTIICRASQDINRWLAWYQQTPGNAPKLLIHSAQSLQSGVPSRFSGSGSGTDFTLTINSLQPEDFATYYCQQADSFPLTFGGGTKVEIK | 0.83 fold |
| C5A (XPA23) VL T52E (antibody, V domains shown) VH: EVQLLESGGGLVQPGGSLRLSCAASGFTFSKYFMFWVRQAPGKGLEWVSVISPSGGMTRYADSVKGRFTISRDNSKNTLYLQMNSLRAEDTAVYYCARVGYGGNSDYWGQGTLVTVSS VL: DIQMTQSPSSVSASVGDRLTIICRASQDINRWLAWYQQTPGNAPKLLIHSAESLQSGVPSRFSGSGSGTDFTLTINSLQPEDFATYYCQQADSFPLTFGGGTKVEIK | 0.61 fold |
| C5A (XPA23) VL T52D (antibody, V domains shown) VH: EVQLLESGGGLVQPGGSLRLSCAASGFTFSKYFMFWVRQAPGKGLEWVSVISPSGGMTRYADSVKGRFTISRDNSKNTLYLQMNSLRAEDTAVYYCARVGYGGNSDYWGQGTLVTVSS VL: DIQMTQSPSSVSASVGDRLTIICRASQDINRWLAWYQQTPGNAPKLLIHSADSLQSGVPSRFSGSGSGTDFTLTINSLQPEDFATYYCQQADSFPLTFGGGTKVEIK | 0.72 fold |
| C5A (XPA23) VL A51S (antibody, V domains shown) VH: EVQLLESGGGLVQPGGSLRLSCAASGFTFSKYFMFWVRQAPGKGLEWVSVISPSGGMTRYADSVKGRFTISRDNSKNTLYLQMNSLRAEDTAVYYCARVGYGGNSDYWGQGTLVTVSS VL: DIQMTQSPSSVSASVGDRLTIICRASQDINRWLAWYQQTPGNAPKLLIHSSTSLQSGVPSRFSGSGSGTDFTLTINSLQPEDFATYYCQQADSFPLTFGGGTKVEIK | 0.95 fold |

Second part, the binder after the results:

| fold difference in affinity vs original | Binder |
| --- | --- |
| 0.76 fold | C5A (XPA23) VL A51T (antibody, V domains shown) VH: EVQLLESGGGLVQPGGSLRLSCAASGFTFSKYFMFWVRQAPGKGLEWVSVISPSGGMTRYADSVKGRFTISRDNSKNTLYLQMNSLRAEDTAVYYCARVGYGGNSDYWGQGTLVTVSS VL: DIQMTQSPSSVSASVGDRLTIICRASQDINRWLAWYQQTPGNAPKLLIHSTTSLQSGVPSRFSGSGSGTDFTLTINSLQPEDFATYYCQQADSFPLTFGGGTKVEIK |
| 0.18 fold | C5A (XPA23) VL A51R (antibody, V domains shown) VH: EVQLLESGGGLVQPGGSLRLSCAASGFTFSKYFMFWVRQAPGKGLEWVSVISPSGGMTRYADSVKGRFTISRDNSKNTLYLQMNSLRAEDTAVYYCARVGYGGNSDYWGQGTLVTVSS VL: DIQMTQSPSSVSASVGDRLTIICRASQDINRWLAWYQQTPGNAPKLLIHSRTSLQSGVPSRFSGSGSGTDFTLTINSLQPEDFATYYCQQADSFPLTFGGGTKVEIK |
| 0.83 fold | C5A (XPA23) VL T52N (antibody, V domains shown) VH: EVQLLESGGGLVQPGGSLRLSCAASGFTFSKYFMFWVRQAPGKGLEWVSVISPSGGMTRYADSVKGRFTISRDNSKNTLYLQMNSLRAEDTAVYYCARVGYGGNSDYWGQGTLVTVSS VL: DIQMTQSPSSVSASVGDRLTIICRASQDINRWLAWYQQTPGNAPKLLIHSANSLQSGVPSRFSGSGSGTDFTLTINSLQPEDFATYYCQQADSFPLTFGGGTKVEIK |
| 0.45 fold | C5A (XPA23) VL A51Y (antibody, V domains shown) VH: EVQLLESGGGLVQPGGSLRLSCAASGFTFSKYFMFWVRQAPGKGLEWVSVISPSGGMTRYADSVKGRFTISRDNSKNTLYLQMNSLRAEDTAVYYCARVGYGGNSDYWGQGTLVTVSS VL: DIQMTQSPSSVSASVGDRLTIICRASQDINRWLAWYQQTPGNAPKLLIHSYTSLQSGVPSRFSGSGSGTDFTLTINSLQPEDFATYYCQQADSFPLTFGGGTKVEIK |
| 0.78 fold | C5A (XPA23) VL T52S (antibody, V domains shown) VH: EVQLLESGGGLVQPGGSLRLSCAASGFTFSKYFMFWVRQAPGKGLEWVSVISPSGGMTRYADSVKGRFTISRDNSKNTLYLQMNSLRAEDTAVYYCARVGYGGNSDYWGQGTLVTVSS VL: DIQMTQSPSSVSASVGDRLTIICRASQDINRWLAWYQQTPGNAPKLLIHSASSLQSGVPSRFSGSGSGTDFTLTINSLQPEDFATYYCQQADSFPLTFGGGTKVEIK |
| 0.91 fold | C5A (XPA23) VL T52H (antibody, V domains shown) VH: EVQLLESGGGLVQPGGSLRLSCAASGFTFSKYFMFWVRQAPGKGLEWVSVISPSGGMTRYADSVKGRFTISRDNSKNTLYLQMNSLRAEDTAVYYCARVGYGGNSDYWGQGTLVTVSS VL: DIQMTQSPSSVSASVGDRLTIICRASQDINRWLAWYQQTPGNAPKLLIHSAHSLQSGVPSRFSGSGSGTDFTLTINSLQPEDFATYYCQQADSFPLTFGGGTKVEIK |
| 3.23 fold | C5A (XPA23) VL T52K (antibody, V domains shown) VH: EVQLLESGGGLVQPGGSLRLSCAASGFTFSKYFMFWVRQAPGKGLEWVSVISPSGGMTRYADSVKGRFTISRDNSKNTLYLQMNSLRAEDTAVYYCARVGYGGNSDYWGQGTLVTVSS VL: DIQMTQSPSSVSASVGDRLTIICRASQDINRWLAWYQQTPGNAPKLLIHSAKSLQSGVPSRFSGSGSGTDFTLTINSLQPEDFATYYCQQADSFPLTFGGGTKVEIK |
| 0.3 fold | C5A (XPA23) VL A51N (antibody, V domains shown) VH: EVQLLESGGGLVQPGGSLRLSCAASGFTFSKYFMFWVRQAPGKGLEWVSVISPSGGMTRYADSVKGRFTISRDNSKNTLYLQMNSLRAEDTAVYYCARVGYGGNSDYWGQGTLVTVSS VL: DIQMTQSPSSVSASVGDRLTIICRASQDINRWLAWYQQTPGNAPKLLIHSNTSLQSGVPSRFSGSGSGTDFTLTINSLQPEDFATYYCQQADSFPLTFGGGTKVEIK |
| 3.37 fold | C5A (XPA23) VL T52R (antibody, V domains shown) VH: EVQLLESGGGLVQPGGSLRLSCAASGFTFSKYFMFWVRQAPGKGLEWVSVISPSGGMTRYADSVKGRFTISRDNSKNTLYLQMNSLRAEDTAVYYCARVGYGGNSDYWGQGTLVTVSS VL: DIQMTQSPSSVSASVGDRLTIICRASQDINRWLAWYQQTPGNAPKLLIHSARSLQSGVPSRFSGSGSGTDFTLTINSLQPEDFATYYCQQADSFPLTFGGGTKVEIK |
